From the nanobody polyreactivity screen of Harvey et al. (2022)

Experiment: yeast display, Sf9 membrane polyspecificity reagent, FACS + sequencing; frameworks hold sequencing errors
Summary of the method: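 Using colony PCR, genes from sorted yeast display clones were amplified, then sequenced on MiSeq at 2 × 250 and filtered by CDR length. The clones had been stained with 10% biotinylated, detergent-solubilized Sf9 membrane reagent for 1 hour at 4 °C and sorted by FACS into low and high (top ~1%) gates on anti-HA and streptavidin fluorescence. Polyreactivity labels come from the gate of origin.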

Sequence | polyreactivity (PSR sort gate)
QVQLVESGGGLVQAGGSLRLSCAASGRIFIGNAMGWYRQAPGKERELVAAISKRGGSTYYADSVKGRFTISRDNAKNTVYLQMNSLKPEDTAVYYCNKESLYREFDYWGQGTQVTVSS | low polyreactivity
QVQLVESGGGLVQAGGSLRLSCAASGRIFIGNAMGWYRQAPGKERELVAAISKRGGSTYYADSVKGRFTISRDNAKNTVYLQMNSLKPEDTAVYYCNTESLYREFDDWGQGTQGTVSS | low polyreactivity
QVQLVESGGGLVQAGGSLRLSCAASGRIFINNAMGWYRQAPGKERELVAAINTGGGTNYADSVKGRFTISRDNAKNTVYLEMNSLKPEDSAVYYCAARTYDFRARHKDGYWGQGTQVTVSS | high polyreactivity
QVQLVESGGGLVQAGGSLRLSCAASGRIFIPYAMGWYRLAPGKERELVAAISSSAGSSYYADSVKGRFTISRDTAKNTVYLQMKSLKPEDTAVYYCAARLYWWYAFETYSSLFEYDYWGQGTQVTVSS | low polyreactivity
QVQLVESGGGLVQAGGSLRLSCAASGRIFITKAMGWYRQAPGKERELVAAIRRRGGNTYYADSVKGRFTISRDNAKNTVYLQMNSLKPEDTAVYYCAVYPRPYKYNYWGQGTQVSVSS | high polyreactivity
QVQLVESGGGLVQAGGSLRLSCAASGRIFIYNAMGWYCQAPGKERELVAAINRSGVSTHYADSVKGRFTISRDNAKNTVYLQMNSLKPEDTAVYYCARTDYGARSYDYWGQGTQVTVSS | low polyreactivity
QVQLVESGGGLVQAGGSLRLSCAASGRIFIYNAMGWYRPAPGKERELVAAINRSGVSTHYADSVKGRFTISRDNEKNTVYLQMNSLKPEDTAVYYCARTVYGARSYDYWGQGTQVTVSS | low polyreactivity
QVQLVESGGGLVQAGGSLRLSCAASGRIFIYNAMGWYRQAPGKEMELVAAISWSGGSTYYADSVKGRFTISRDNAKNTVYLQMNSLKPEDTAVYYCNARYYGPSWNSYDYWGQGTQVTVSS | high polyreactivity
QVQLVESGGGLVQAGGSLRLSCAASGRIFIYNAMGWYRQAPGKERELVAAISYSGGRTYYADSVKGRFTISRDNPKNTVYLQMNRLKPEDPAVYYCNAAYRISSAPGYFYFPYNYDYWGQGTQVTVSS | high polyreactivity
QVQLVESGGGLVQAGGSLRLSCAASGRIFIYNAMGWYRQATGKERELVAAISYRGGSTYYADSVKGRFTISRDNAKNTVYLQMNSLKPEDTAVYYCNAKIVQYGAHNYWGQGTQVTVSS | high polyreactivity
QVQLVESGGGLVQAGGSLRLSCAASGRIFIYNDMGWYRQAPGKERELVAAITFIDDSTNYADSVKGRFTISRDNAKYSVYLQMNRLKPEDTAVYYCAARLYSSASGVRWIKFDYWGQGTQVTVSS | low polyreactivity
QVQLVESGGGLVQAGGSLRLSCAASGRIFKFNTMGWYRQAPGKERELVAVITLSGGRTFYADSVKGRFTISRDNAKNTVYLQMNSLKPEDTAVYYCAKDFEGYEGGLSRDDYWGQGTQVTVSS | low polyreactivity
QVQLVESGGGLVQAGGSLRLSCAASGRIFKFYDMGWYREAPGKERELVAAISHAGRTNYADSVKGRFTISRDNAKNTVYLQMNSLKPEDTAVYYCNTDYILVRGVPWYYKLDYWGQGTQVTVSS | high polyreactivity
QVQLVESGGGLVQAGGSLRLSCAASGRIFKGNAMGWYRQAPGKEREFVAAISQRGGSTYYADSVKGRFTISRDNAKNTVYLQMNSLKPEDTAVYYCAAVRKSVGVKYDYWGQGTQVTVSS | high polyreactivity
QVQLVESGGGLVQAGGSLRLSCAASGRIFKGNGMGWYRQAPGKERELVAAISRSGGNTYYADSVKGRFTISRDNAKNTVYLQMNSLKPEDTAVYYCNVRYYTYRFLRFDYWGQGTQVTVSS | high polyreactivity
QVQLVESGGGLVQAGGSLRLSCAASGRIFKGYAMGWYRKAPGKERELVAAITISGGSTYYADSVKGRFTISRDNAKNTVYLQMNSLIPEDTAVFYFAARKFVYWYGMEYWGQGTQVTVSS | low polyreactivity
QVQLVESGGGLVQAGGSLRLSCAASGRIFKKNAMGWYRQAPGKERELVATITQRGGTTYYADSVKGRFTISRDNAKNTVYLQMNSLKPEDTAVYYCATEGYETWSYWYRGAYTYYYWGQGTQVTVSS | high polyreactivity
QVQLVESGGGLVQAGGSLRLSCAASGRIFKNYAMGWYRQAPGKERELVAGITRTGGSTYYADSVKGRFTISRDNAKNTVYLQMNSLKPEDTAVYYCAARPARKLVYWVQGTQVTVSS | high polyreactivity
QVQLVESGGGLVQAGGSLRLSCAASGRIFKPYAMGWYRQAPGKERELVAAITDGGTTYYADSVKGRFTISRDNAKNTVYLQMNSLKPEDTAVYYCAADLGKLRYDYWGPGTQVTVSS | low polyreactivity
QVQLVESGGGLVQAGGSLRLSCAASGRIFKQYAMGWYRQAPGKERELVAAISVRGGITYYADSVKGRFTISRDNAKNTVYLQMNSLKPEDTAVYYCAKRSYRTHTYDYWGQGTQVTVSS | low polyreactivity
QVQLVESGGGLVQAGGSLRLSCAASGRIFKRYAMGWYRQAPGKERELVAAISKSGGSTYYADSVKGRFTISRDNAKNTVYLQMNSLKPEDTAVYYCNADPVRSGLDYWGQGTQVTVSS | high polyreactivity

Sequence | polyreactivity (PSR sort gate)
QVQLVESGGGLVQAGGSLRLSCAASGRIFKRYAMGWYRQAPGKERELVAAISRGASTYYADSVKGRFTISRDNAKNTVYLQMNSLKPEDTAVYYCAAKGATPHYDYWGQGTQVTVSS | high polyreactivity
QVQLVESGGGLVQAGGSLRLSCAASGRIFKRYAMGWYRQAPGKERELVASITTSGDSTYYADSVKGRFTISRDNAKNTVYLQMNSLKPEDTAVYYCAARSYRGRRYDYWGQGTQVTVSS | high polyreactivity
QVQLVESGGGLVQAGGSLRLSCAASGRIFKRYVMGWYRQAPGKERELVAAISQRGGSTNYADSVKGRFTISRDNAKNTVYLQMNSLKPEDTAVYYCAAGFFSRYDYWGQGTQVTVSS | high polyreactivity
QVQLVESGGGLVQAGGSLRLSCAASGRIFKSDGMGWYREAPGKERELVATISSSGDSTYYADSVKGRFTISRDNAKNTVYLQMNSLKPDDTAVYHCAKRARYKFGYWGQGTQVTVSS | high polyreactivity
QVQLVESGGGLVQAGGSLRLSCAASGRIFKSYAMGWYRQAPGKERELVAAISRGGRTNYADSVKGRFTISRDNAKNTVYLQMNSLKPEVTAVYYCAARFVVQGHSSPYDYWGQGTQVTVSS | high polyreactivity
QVQLVESGGGLVQAGGSLRLSCAASGRIFKSYAMGWYRQSPGKERELVAIIRSSGTTYYADSVKGRFTISRDNAKNTVYLQMNSLKPEDTAVYYCAADPYYWRQFNYDYWGQGTQVTVSS | high polyreactivity
QVQLVESGGGLVQAGGSLRLSCAASGRIFKTNAMGWYRQAPGKERELVAAISRSGSRTSYADSVKGRFTISRDNAKNTVYLQMNSLKPEDTAVYYCATRGLYWKVGYWGQGTQVTVSS | high polyreactivity
QVQLVESGGGLVQAGGSLRLSCAASGRIFKTYAMGWYRPAPGTERELVAGISWRGGSTYYADSVKGRFTISRDNAKNTVYLQMNSLKPEDTAVYYCAADDTYTRYDYWGQGTQVTVSS | high polyreactivity
QVQLVESGGGLVQAGGSLRLSCAASGRIFKTYAMGWYRQAPGKERELVAGISWRGGSTYYADSVKGRFTISRDNAKNTVYLQMNSLKPEDTAVYYCAADDTYTRYDYWGQGTQVTVSS | high polyreactivity
QVQLVESGGGLVQAGGSLRLSCAASGRIFKVYAMGWYIQAPGKERELVAVISRGGSTYYADSVKGRFTISRDNAKNTVYLQMNSLKPEDTAVYYCAARLTYTGGQGAYDYWGQGTQVTVSS | high polyreactivity
QVQLVESGGGLVQAGGSLRLSCAASGRIFKVYAMGWYRQAPGKERDLVAVISRGGSTYYADSVKGRFTISRDNAKNTVYLQMKSLKPEDTAVYYCAARLTYTGGQGAYDYWGQGTQVTVSS | high polyreactivity
QVQLVESGGGLVQAGGSLRLSCAASGRIFKVYAMGWYRQAPGKERELVAAITWSGVSTYADSVKGRFTISRDNAKNTVYLQMNSLKPEDTAVYYCAAYLRSPGDRQGYYYWGQGTQVTVSS | high polyreactivity
QVQLVESGGGLVQAGGSLRLSCAASGRIFKWYAMGWYRQAPGKERELVAAITWRGGSTNYADSVKGRFTISRDNAKNTVYLQMNSLKPEDTAVYYCAVGTVFLTYRGYEYWGQGTQVTVSS | high polyreactivity
QVQLVESGGGLVQAGGSLRLSCAASGRIFKYNAMGWSIQAPGKERELVAAISSGGSTKYADSVKGRFTISRDNAKNTVYLQMNSLKPEDTAVYYCNAVYTPYRRSFYYWGHGTQVTVSS | high polyreactivity
QVQLVESGGGLVQAGGSLRLSCAASGRIFKYNAMGWYIQAPGKERELVAVITSGGSTYYADSVKGRFTISRDNEKNTVYLQMNSLKPDDTEVYYCAKKYYKVHKFDYWGQGTQVTVSS | low polyreactivity
QVQLVESGGGLVQAGGSLRLSCAASGRIFKYNAMGWYRQAPGKERELVAAISSSGGSTYYADSVKGRFTISRDNAKNTVYLQMNSLKPEDTAVYYCAARYAPTLSVYRFYYWGQGTQVTVSS | high polyreactivity
QVQLVESGGGLVQAGGSLRLSCAASGRIFKYYAKGWYIQAPGKERELVAAINRDGGRTYYADSVKGRFTISRDNAKNTVYLQMNSLKPEDTAVYYCAASYGYVYTTSLDYWGQGTQVTVSS | low polyreactivity
QVQLVESGGGLVQAGGSLRLSCAASGRIFKYYAMGWYRQAPGKERELVAAISGTGGGTYYADSVKGRFTISRDNAKNTVYLQMNSLKPEDTAVYYCAALHQAYRGFDYWGQGTQVSVSS | high polyreactivity
QVQLVESGGGLVQAGGSLRLSCAASGRIFKYYAMGWYRQAPGKERELVAAISWTGVSTYYADSVKGRFTISRDNAKNTVYLQMNSLKPEDTAVYYCNAQSYRYPKDDYWGQGTQVTVSS | high polyreactivity
QVQLVESGGGLVQAGGSLRLSCAASGRIFKYYDMGWYRQAPGKERELVARISSGGGRTYYADSVKGRFKISRDNAKNTVYLQMNSLKPEDTAVYYCAADPPASYHTWYGYWGQGTQVTVSS | high polyreactivity
